Measurements published in the supplement of paper PMC9170038.

System: MS2 coat protein
Test: apparent KD of MS2 coat protein; designed switch direction (-1 OFF switch, 1 ON switch): -1; higher = weaker reporter binding
Outline: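 The buffer was Tris-HCl pH 7.5 with KCl, MgCl2, BSA, DTT, tRNA and Tween-20. In it, SNAP-549-labelled MS2 coat protein was titrated in doubling steps from 0.7 or 1.5 nM to 3 µM over chip-bound RNA switches transcribed by stalled E. coli RNA polymerase on Illumina chips. Apparent KD is the per-design median over clusters of curve fits to normalised fluorescence.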

[1] = input ligand: microRNA oligo, concentration not stated
[2] = Eterna round: R95, input ligand: microRNA oligo, concentration not stated
[3] = Eterna round: R95, input ligand: FMN 200 uM
[4] = Eterna round: R95, input ligand: none

Sequence	apparent KD of MS2 coat protein (input ligand: FMN 200 uM) [nM]	apparent KD of MS2 coat protein (input ligand: none) [nM]	apparent KD of MS2 coat protein [2] [nM]	also measured
UUGGAACAUGAGGAUCACCCAUGUCAGGAUAUUCCAAAAUCGUCGAAAGACGAUAACAGAAGAAGGGACAUUAG [Fiskxlusion 9 - Jieux - Exclusion 1] (Eterna round: R97, puzzle: Exclusion 1)	124	80.2		
UUGUACCGGUGAGGAUAUCGUUGAUAGAACUUUAUGAUAUACAUGAGGAUCACCCAUGUUACUUUCGAGAAGGCAUCGGAUUAU [ExNG2 6th] (Eterna round: R96, puzzle: Exclusion NG 2)	12.3	21.8		apparent KD of MS2 coat protein [1]: 10.3 nM
UUGUUACAUGAGGAUCACCCAUGUGAGGAUAUGGUUCAGUACUGUCAUGUCACGUACUCCAGAAGGCACAUGUU [1st #31] (Eterna round: R97, puzzle: Exclusion 1)	363	120		
UUGUUAUGUGUAGGAUAUGCAUAUUAUUAUUAUGCAGAAGGACAUGAGGAUCACCCAUGUAUAUUAUUAUUAUAUGUUAUAUAU [Title] (Eterna round: R96, puzzle: Exclusion NG 1)	29.3	22.8		apparent KD of MS2 coat protein [1]: 19 nM
UUGUUAUGUGUAGGAUAUGCGUGUUAUUAUUAUGCAGAAGGACAUGAGGAUCACCCAUGUGUAUUGUUAUUAUAUAUUAUAUAU [Title] (Eterna round: R96, puzzle: Exclusion NG 1)	21	20.8		apparent KD of MS2 coat protein [1]: 13.2 nM
UUGUUUUUUGAGGAUAUGCGACGUUUUUUCGUCGUAGAAGGCGAUACAUGAGGAUCACCCAUGUUUAUGGGCAU [LRO-Ex6-14] (puzzle: Exclusion 6)			122	
UUUAAGGGAAUUAAGAUCACAUGAGGAUCACCCAUGUAUAUAUAGGAUAUCAGCUCGAUUAGAGCUGAGAAGGAUAUAUACAUA [ExNG3/6-A1] (Eterna round: R96, puzzle: Exclusion NG 3)	126	165		apparent KD of MS2 coat protein [1]: 79.7 nM
UUUAAUUGUCACAUGGGUGACAUGAGGAUCACCCAUGUCACAAGCUUUUUGCUCGUCUUAUAAUUAACCCAUGUGAC [Stov1/12-A1] (Eterna round: R97, puzzle: Sensor, turn-off variant 1)	13.4	13.7		
UUUAAUUGUCAGAUGGGUGACAUGAGGAUCACCCAUGUCACAAGCUUUUUGCUCGUCUUAUAAUUAACCCAUCUGAC [Stov1/11-A1] (Eterna round: R97, puzzle: Sensor, turn-off variant 1)	13.5	12.3		
UUUAAUUUAAUUAAGAUCACAUGAGGAUCACCCAUGUAAUUAUAGGAUAUCAGCUCGUGUAGAGCUGAGAAGGAUAAUUACAUA [ExNG3/5-A3] (Eterna round: R96, puzzle: Exclusion NG 3)	81.9	72.7		apparent KD of MS2 coat protein [1]: 58.2 nM
UUUAAUUUUUUUUUUUUACAAGCUUUUUGCUCGUCUUAUACAUGAGGAUCACCCAUGUGGGUAAAGGGUAAAUUAUC [JMF 80] (puzzle: Sensor v3, turn-off variant 2)			50.9	apparent KD of MS2 coat protein [3]: 23 nM; apparent KD of MS2 coat protein [4]: 20.9 nM
UUUACAAGCUAUUGAUCCCACAUGAGGAUCACCCAUGUUCCUGGCCGUGAGGCUAGGUAAACAAUUGCUCGUCUUAU [JL TOV1 3.69] (Eterna round: R97, puzzle: Sensor, turn-off variant 1)	903	1370		
UUUACAAGCUUAUGAUCCCACAUGAGGAUCACCCAUGUUGCUGCCGGUGACGGUAGCAUAACAUAUGCUCGUCUUAU [JL TOV1 3.57] (Eterna round: R97, puzzle: Sensor, turn-off variant 1)	1570	1840		
UUUAGUUUAGGAUAUGUAGACAUUAACAUGAGGAUCACCCAUGUAGAUCCUGAAUUGGCUACAGAAGGAAGCAUUU [Mod of Brourd 11 - Jieux - Exclusion 5] (Eterna round: R97, puzzle: Exclusion 5)	168	354		
UUUAGUUUAGGAUAUGUAGAUUUUAACAUGAGGAUCACCCAUGUAGAUCCUGAAUUAACUACAGAAGGGAACAUUU [Mod of Brourd 14 - Jieux - Exclusion 5] (Eterna round: R97, puzzle: Exclusion 5)	124	154		
UUUAUGUAAGGAUAUAUGGGUUUAAAUGAAAAUUUGGGCCCAUAGAAGGUACAUGAGGAUCACCCAUGUAGUGG [-24.4, -24.3 kcal, 32% A] (Eterna round: R97, puzzle: Exclusion 4)	474	641		
UUUCCACAUGAGGAUCACCCAUGUCAGGAUAUUAUAGUUGGCCGAAAGGCGUCAGUGGUAAGAAGGGACGUUGA [Eternabot (L2) Solution 46] (Eterna round: R97, puzzle: Exclusion 1)	16.1	15.8		
UUUCUUCAUAUCACAUGAGGAUCACCCAUGUUAUUCAUCGCGUAGGAUAUCGAGAAUUUUAAAUACGAGAAGGACGUAUUGAUA [JR_ExcNG3_Sub072] (Eterna round: R96, puzzle: Exclusion NG 3)	43.4	38.8		apparent KD of MS2 coat protein [1]: 31.1 nM

Sequence	apparent KD of MS2 coat protein (input ligand: FMN 200 uM) [nM]	apparent KD of MS2 coat protein (input ligand: none) [nM]	apparent KD of MS2 coat protein [2] [nM]	also measured
UUUGUUGUUGUGAGGAUAUACUGUUUGUUUUGUUUGUAGAAGGUACAUGAGGAUCACCCAUGUUGGUUGUUUUU [JR_BME4_Sub030] (puzzle: Brourd's mod of Exclusion 4)			24.3	
UUUGUUGUUGUGAGGAUAUCGUAGUUAUUUUGUAACGAGAAGGCACAUGAGGAUCACCCAUGUUUUUUGAUGGU [JR_BMOE4_Sub063] (puzzle: Brourd's mod of Exclusion 4)			24.9	
UUUGUUUUGCAAGGAUAUGUUUAAUUUUAGUUUCCUUACACAUGAGGAUCACCCAUGUUAUACUUACAGAAGGUGCGUAAUUUU [Excl-NG2-LRO02] (Eterna round: R96, puzzle: Exclusion NG 2)				apparent KD of MS2 coat protein [1]: 104 nM
UUUUAACAUGAGGAUCACCCAUGUGAGGAUAUCCUAUUUUUUUUUUUUUUUUUUUUUUGGAGAAGGCACAUUUU [My solution] (puzzle: Exclusion 1)			38.3	apparent KD of MS2 coat protein [3]: 23.1 nM; apparent KD of MS2 coat protein [4]: 7.45 nM
UUUUAACAUGAGGAUCACCCAUGUGAGGAUAUCGAAAUUUAUAUUAAUAUUAAUAAUACGAGAAGGCACAUUUU [JMF 22] (puzzle: Exclusion 1)			71	
UUUUAACAUGAGGAUCACCCAUGUGAGGAUAUCGAAAUUUAUAUUAAUAUUAUUAAAUCGAGAAGGCACAUUUU [JMF 36] (puzzle: Exclusion 1)			104	
UUUUAACAUGAGGAUCACCCAUGUGAGGAUAUCGAAAUUUAUAUUAAUAUUAUUUUUACGAGAAGGCACAUUUU [JMF 50] (puzzle: Exclusion 1)			99.2	
UUUUAACAUGAGGAUCACCCAUGUGAGGAUAUCGAAAUUUAUAUUAAUAUUUAUUAUUCGAGAAGGCACAUUUU [JMF 61] (puzzle: Exclusion 1)			119	
UUUUAACAUGAGGAUCACCCAUGUGAGGAUAUCGAAAUUUAUAUUAAUAUUUUUAUAACGAGAAGGCACAUUUU [JMF 71] (puzzle: Exclusion 1)			64.8	
UUUUAACAUGAGGAUCACCCAUGUGAGGAUAUCGAAAUUUAUAUUUAUAUUAAUUAAACGAGAAGGCACAUUUU [JMF 83] (puzzle: Exclusion 1)			74	
UUUUAACAUGAGGAUCACCCAUGUGAGGAUAUCGAUUUUUUUAUUAAUAUUAAUAAAACGAGAAGGCACAUUUU [JMF 19] (puzzle: Exclusion 1)			73.5	
UUUUAACAUGAGGAUCACCCAUGUGAGGAUAUCGUUUUUUUUUUUUUUUUUUUUUUUUCGAGAAGGCACAUUUU [My solution] (puzzle: Exclusion 1)			84	apparent KD of MS2 coat protein [3]: 127 nM; apparent KD of MS2 coat protein [4]: 14 nM
UUUUACAAGCUAAGAUCCUACAUGAGGAUCACCCAUGUGGUCCGGUGACGUGAGUCACCGGACUUAGCUCGUCUUGA [salish99_S_TOV1_R5_085] (Eterna round: R97, puzzle: Sensor, turn-off variant 1)	38.9	40.4		
UUUUACCGAGGAUAUACAUUUUUUUUAUUAUCCUCAUUAUUACAUGAGGAUCACCCAUGUAGAAGGCGGAUUUU [My Design] (puzzle: Exclusion 2)			56.9	
UUUUAGCAAGCGAGAUCCCACAUGAGGAUCACCCAUGUGCAUCCAGAAUUACUUUUUGCAUAAGCUCGUCUUAUAUA [JR_STOV1_v2_Sub080] (Eterna round: R97, puzzle: Sensor, turn-off variant 1)	58.8	64.5		
UUUUCACAUGAGGAUCACCCAUGUGAGGAUAUGGAUUCGCUGGCCGUAGCCAGUGGAUCCAGAAGGCGCAUGAU [JL-ex1-4.06] (Eterna round: R97, puzzle: Exclusion 1)	36	32.8		
UUUUCCAGAGGAUAUGCGAAUAAAUAAAACUUUUUUUUUUAACAUGAGGAUCACCCAUGUAGAAGGCUGCUUUU [Ex2 #27] (Eterna round: R97, puzzle: Exclusion 2)	27.1	30.1		
UUUUGGCAAGCGAGAUCCUACAUGAGGAUCACCCAUGUUGACCAUGGUUUCCAUGGUCUUUUUGCUCGUCUUGUGUG [jl TITIN mod 3] (Eterna round: R97, puzzle: Sensor, turn-off variant 1)	21.1	23.1		
